Data set [1] deals with T1, GST-tagged recombinant SLK (Mus musculus, UniProt O54988).
T1 construct: GST (N); made in house; host or cells: bacteria (IPTG-induced, pGEX vector)
The data set can be described thus: Recombinant SLK kinase assay on histone H1. Conditions: recombinant His-tagged Ldb added to GST-SLK, substrate histone H1. It is filed as biochemical, murine. From the text:
(a-left panel) MEFs obtained from floxed-Ldb1 mice were generated and infected with recombinant adenovirus harbouring a GFP or Cre recombinase cDNA. […] (right panel) SLK was immunoprecipitated from lysates obtained from Ad-GFP or Ad-Cre infected cells. SLK precipitation efficiency and kinase activity was consistently greater in lysates from Cre-infected cells. In addition, Ldb2 association with the SLK complex was lost in cells lacking Ldb1 (bottom panel). (b) Ldb2 interacts with SLK kinase domain and ATH. […] (c) Ldb1/2 inhibit SLK kinase activity in vitro. Recombinant GST-tagged SLK was prepared and mixed with recombinant His-tagged Ldb2 (lane 2), His-tagged Ldb1 (lane 3) or both (lane 4) and assayed for kinase activity on histone H1. Addition of recombinant Ldb proteins inhibited SLK activity (d) Activation of SLK by scratch wounding is accompanied by a conformational change. Endogenous SLK complexes were immunoprecipitated from unscratched MEFs or 60 min post-wounding and subjected to trypsin digestion. Differential trypsin sensitivity was observed indicative of altered conformation.
Recombinant SLK was prepared by inducing an overnight culture of GST-SLK with IPTG and preparing GST SLK as described above. […]

A further data set relates to α-tubulin. The data set can be described thus: GST pulldown binding to α-tubulin. Conditions: in vitro. From the text: Co-localization of Rac1 (d), Paxillin (e) and Ldb1 (f) with SLK (a-c) in membrane ruffles of migrating fibroblasts on fibronectin (arrowhead). Note the absence of SLK in mature adhesions identified by Paxillin staining (e; arrow). […] (m) Ldb2 binds α-tubulin.

Data set [2] has as its target T2, SLK (Mus musculus, UniProt O54988).
T2 construct: made in house; host or cells: bacteria (IPTG-induced; pGEX-5X or 4T1)
T2 sequence (O54988 981-1233): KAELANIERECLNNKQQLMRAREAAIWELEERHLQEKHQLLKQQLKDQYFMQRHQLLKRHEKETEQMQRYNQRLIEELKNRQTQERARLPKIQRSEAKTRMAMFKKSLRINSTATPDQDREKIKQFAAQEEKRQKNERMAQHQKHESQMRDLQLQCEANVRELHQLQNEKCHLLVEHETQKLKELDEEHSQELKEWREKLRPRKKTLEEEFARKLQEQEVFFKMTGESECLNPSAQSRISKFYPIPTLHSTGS
Nature of the data set: In vitro binding assay, GST-SLK fusions with [35S]-labeled Ldb. Also on record: species or system murine. Conditions: GST pulldown, autoradiography. The protocol: (§1) GST fusion proteins were generated by induction of bacterial cultures with 1 mM isopropyl-beta-D-thiogalactopyranoside (IPTG, Sigma) for 2 hours. Bacteria were pelleted, resuspended in 1 ml bacterial lysis buffer (20% sucrose, 10% glycerol, 50 mM Tris-HCl pH 8.0, 2 mM MgCl2, 2 mM DTT, 10 μg/ml leupeptin, 10 μg/ml pepstatin, 10 μg/ml aprotinin, 1 mM phenylmethylsulphonylfluoride [PMSF] and 100 μM benzamidine) and sonicated on ice.
(§2) Glutathione sepharose beads (Amersham Pharmacia) were added to the cleared supernatants and bound GST fusions were collected by centrifugation, washed three times with NETN and subjected to binding assays. In vitro translated proteins were generated using the TNT quick coupled in vitro transcription translation kit (Promega) according to the manufacturer's instructions. Translated proteins were incubated with either GST or GST fusions in NETN buffer, washed with NETN and eluted from the beads by boiling in sample buffer. Proteins were fractionated by SDS-PAGE, the gels were stained with Coomassie brilliant blue (Sigma) to visualize the proteins, destained (30% methanol, 10% acetic acid), dried and subjected to autoradiography.

In data set [3] the test system is SLK. The description is as above. Also on record: species or system murine. Conditions: deletions lacking the ATH domain, prolonged exposures. How it is done:
as §1, §2

The target of data set [4] is T3, SLK (Mus musculus, UniProt O54988).
T3 construct: made in house; host or cells: bacteria (IPTG-induced; pGEX-5X or 4T1)
Described as above. Also on record: species or system murine. Conditions: carboxy-terminal deletion lacking the latter two thirds of the ATH domain. The protocol: as §1, §2
T3 sequence (O54988 1-950 isoform O54988-2): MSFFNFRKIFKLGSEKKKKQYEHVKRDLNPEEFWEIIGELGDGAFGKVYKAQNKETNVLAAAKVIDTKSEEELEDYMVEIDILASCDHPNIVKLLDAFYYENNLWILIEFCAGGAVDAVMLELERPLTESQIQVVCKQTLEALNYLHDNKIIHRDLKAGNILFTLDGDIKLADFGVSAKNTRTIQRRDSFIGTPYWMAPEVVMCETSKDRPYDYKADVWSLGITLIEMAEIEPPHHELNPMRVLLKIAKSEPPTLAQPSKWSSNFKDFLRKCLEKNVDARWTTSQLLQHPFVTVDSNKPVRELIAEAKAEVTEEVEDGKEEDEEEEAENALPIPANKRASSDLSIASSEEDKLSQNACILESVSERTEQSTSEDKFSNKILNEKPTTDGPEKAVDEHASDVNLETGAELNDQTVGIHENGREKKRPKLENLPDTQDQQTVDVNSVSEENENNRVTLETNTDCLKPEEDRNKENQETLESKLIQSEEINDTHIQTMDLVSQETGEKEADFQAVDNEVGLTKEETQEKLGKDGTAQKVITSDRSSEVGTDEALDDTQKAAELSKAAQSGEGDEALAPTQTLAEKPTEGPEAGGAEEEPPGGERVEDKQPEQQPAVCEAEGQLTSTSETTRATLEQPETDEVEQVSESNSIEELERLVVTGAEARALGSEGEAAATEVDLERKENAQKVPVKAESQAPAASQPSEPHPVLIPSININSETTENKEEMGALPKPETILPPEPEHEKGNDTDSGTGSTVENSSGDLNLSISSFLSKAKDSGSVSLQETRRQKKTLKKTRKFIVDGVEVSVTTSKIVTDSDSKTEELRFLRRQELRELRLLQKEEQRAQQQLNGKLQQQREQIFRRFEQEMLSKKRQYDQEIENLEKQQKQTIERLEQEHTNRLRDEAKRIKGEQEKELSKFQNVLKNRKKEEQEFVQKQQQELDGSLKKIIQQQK

T1 sequence (O54988 1-1202 isoform O54988-2): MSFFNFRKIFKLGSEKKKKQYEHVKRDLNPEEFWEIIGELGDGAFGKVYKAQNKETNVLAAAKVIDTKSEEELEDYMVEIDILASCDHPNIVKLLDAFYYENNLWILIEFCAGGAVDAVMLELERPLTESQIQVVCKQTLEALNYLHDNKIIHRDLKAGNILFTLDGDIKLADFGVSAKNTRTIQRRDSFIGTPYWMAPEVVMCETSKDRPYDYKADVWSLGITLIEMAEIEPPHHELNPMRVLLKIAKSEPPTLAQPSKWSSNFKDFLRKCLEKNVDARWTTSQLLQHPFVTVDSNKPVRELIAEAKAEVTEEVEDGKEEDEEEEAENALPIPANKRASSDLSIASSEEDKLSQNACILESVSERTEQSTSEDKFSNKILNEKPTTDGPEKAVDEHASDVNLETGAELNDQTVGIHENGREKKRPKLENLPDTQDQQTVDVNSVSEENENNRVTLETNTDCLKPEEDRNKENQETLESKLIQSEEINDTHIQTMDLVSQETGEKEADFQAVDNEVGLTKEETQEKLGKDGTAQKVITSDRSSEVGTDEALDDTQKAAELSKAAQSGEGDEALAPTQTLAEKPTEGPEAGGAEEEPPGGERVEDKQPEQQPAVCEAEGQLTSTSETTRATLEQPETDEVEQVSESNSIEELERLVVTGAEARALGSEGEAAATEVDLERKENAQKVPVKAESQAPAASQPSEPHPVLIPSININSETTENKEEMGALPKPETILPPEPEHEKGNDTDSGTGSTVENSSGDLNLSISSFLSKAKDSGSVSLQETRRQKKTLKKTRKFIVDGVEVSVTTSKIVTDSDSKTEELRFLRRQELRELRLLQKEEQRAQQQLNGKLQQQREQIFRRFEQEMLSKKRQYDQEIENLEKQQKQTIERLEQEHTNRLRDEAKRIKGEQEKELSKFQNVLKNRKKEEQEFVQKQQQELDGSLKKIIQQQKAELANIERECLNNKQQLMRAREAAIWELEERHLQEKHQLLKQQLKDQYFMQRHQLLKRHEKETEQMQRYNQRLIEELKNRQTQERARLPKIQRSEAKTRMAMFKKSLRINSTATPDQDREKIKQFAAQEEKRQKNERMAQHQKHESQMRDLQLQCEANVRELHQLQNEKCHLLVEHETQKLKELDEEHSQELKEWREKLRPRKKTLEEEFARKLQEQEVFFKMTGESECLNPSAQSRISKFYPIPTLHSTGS

B1: Ldb2: LIM domain binding transcription co-factor, paralog of Ldb1; recombinant His-tagged or in vitro translated protein (protein)
chain: MSSTPHDPFYSSPFGPFYRRHTPYMVQPEYRIYEMNKRLQSRTEDSDNLWWDAFATEFFEDDATLTLSFCLEDGPKRYTIGRTLIPRYFSTVFEGGVTDLYYILKHSKESYHNSSITVDCDQCAMVTQHGKPMFTKVCTEGRLILEFTFDDLMRIKTWHFTIRQYRELVPRSILAMHAQDPQVLDQLSKNITRMGLTNFTLNYLRLCVILEPMQELMSRHKTYNLSPRDCLKTCLFQKWQRMVAPPAEPTRQPTTKRRKRKNSTSSTSNSSAGNTTNSAGSKKKTPAASLSLATQVPDVMVVGEPTLMGGEFGDEDERLITRLENTQYDAANGMDDEEDFNNSPALGNNSPWNSKPPATQETKSENAPPQASQ
modifications: left off: large carriers
notes: recombinant His-tagged or in vitro translated protein
Regarding B1, in data set [1], the SLK kinase activity entry is recorded as “reduced SLK activity”. Besides, in the data set with α-tubulin, the “binding to α-tubulin” value is given as “found to bind α-tubulin in vitro”. For the same molecule, the “binding to SLK ATH domain (SLK 950-1202)” value with SLK [2] is “highest affinity”. In addition, the “binding to GST-SLK-1-551, GST-SLK-1-373” value in the data set on SLK [3] is on record as “weak binding”. In addition, in the data set with SLK [4], the “binding to SLK 1-950” value was “moderate affinity”.

B2: Ldb1: LIM domain binding transcription co-factor; recombinant His-tagged or in vitro translated protein, SLK binding partner (protein)
chain: MLDRDVGPTPMYPPTYLEPGIGRHTPYGNQTDYRIFELNKRLQNWTEECDNLWWDAFTTEFFEDDAMLTITFCLEDGPKRYTIGRTLIPRYFRSIFEGGATELYYVLKHPKEAFHSNFVSLDCDQGSMVTQHGKPMFTQVCVEGRLYLEFMFDDMMRIKTWHFSIRQHRELIPRSILAMHAQDPQMLDQLSKNITRCGLSNSTLNYLRLCVILEPMQELMSRHKTYSLSPRDCLKTCLFQKWQRMVAPPAEPARQQPSKRRKRKMSGGSTMSSGGGNTNNSNSKKKSPASTFALSSQVPDVMVVGEPTLMGGEFGDEDERLITRLENTQFDAANGIDDEDSFNNSPALGANSPWNSKPPSSQESKSENPTSQASQ
modifications: left off: large carriers
B2: in data set [1], the SLK kinase activity result is recorded as “reduced SLK activity”. Further, the “binding to α-tubulin” value in the data set with α-tubulin is given as “not”. In addition, in the data set with SLK [2], the “binding to SLK ATH domain (SLK 950-1202)” value was “indistinguishable from Ldb2”.

These data come from patent US20090081195A1, “Inhibitors of Ste20-like Kinase (SLK) and Methods of Modulating Cell Cycle Progression and Cell Motility” (OTTAWA HEALTH RESEARCH INSTITUTE, priority 2005, published 2009).
